# Like-named read-outs stand apart in the source and are kept apart here. Where no end group is shown, it is not given here. [ ]: non-standard residue; d: D form. Hyp = O=C(O)[C@@H]1C[C@@H](O)CN1
# T1: biotinylated LRR ectodomain of BARELY ANY MERISTEM 1 (BAM1, residues 20 - 637) with Avi-tag (Arabidopsis (printed as AtBAM1), UniProt O49545 20-637, biotin (BirA biotinylation))
# T1 chain: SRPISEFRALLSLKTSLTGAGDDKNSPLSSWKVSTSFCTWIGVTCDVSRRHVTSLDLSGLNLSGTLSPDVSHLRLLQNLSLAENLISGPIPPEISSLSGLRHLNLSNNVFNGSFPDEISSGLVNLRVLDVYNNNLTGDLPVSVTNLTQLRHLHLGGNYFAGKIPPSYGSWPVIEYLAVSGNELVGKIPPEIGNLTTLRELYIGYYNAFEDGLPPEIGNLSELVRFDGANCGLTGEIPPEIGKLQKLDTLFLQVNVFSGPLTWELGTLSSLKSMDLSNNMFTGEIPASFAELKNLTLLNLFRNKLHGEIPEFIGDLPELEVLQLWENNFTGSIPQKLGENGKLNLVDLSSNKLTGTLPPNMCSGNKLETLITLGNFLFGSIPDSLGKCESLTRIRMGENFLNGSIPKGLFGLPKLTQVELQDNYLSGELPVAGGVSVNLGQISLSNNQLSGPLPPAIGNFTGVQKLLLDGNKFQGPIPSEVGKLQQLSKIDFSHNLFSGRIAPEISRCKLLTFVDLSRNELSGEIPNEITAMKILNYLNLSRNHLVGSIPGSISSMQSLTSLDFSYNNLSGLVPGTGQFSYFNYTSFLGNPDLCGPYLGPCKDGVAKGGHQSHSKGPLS
# T2: biotinylated LRR ectodomain of BARELY ANY MERISTEM 1 (BAM1, residues 20 - 637) with Avi-tag (Arabidopsis (printed as AtBAM1), UniProt O49545 20-637, biotin (BirA biotinylation))
# T2 construct: BAM1 (AtBAM1) LRR ectodomain, residues 20-637, synthetic gene (Geneart), secreted with the Drosophila melanogaster BiP signal peptide; The sentence on the vector most likely means that the non-cleavable Avi-tag is C-terminal as well; also called AtBAM1^LRR; BAM1^LRR; source: biotinylated with BirA; not shown: StrepII, C-terminal, cleaved; 10x His, C-terminal, cleaved
# T2 sequence (looked up): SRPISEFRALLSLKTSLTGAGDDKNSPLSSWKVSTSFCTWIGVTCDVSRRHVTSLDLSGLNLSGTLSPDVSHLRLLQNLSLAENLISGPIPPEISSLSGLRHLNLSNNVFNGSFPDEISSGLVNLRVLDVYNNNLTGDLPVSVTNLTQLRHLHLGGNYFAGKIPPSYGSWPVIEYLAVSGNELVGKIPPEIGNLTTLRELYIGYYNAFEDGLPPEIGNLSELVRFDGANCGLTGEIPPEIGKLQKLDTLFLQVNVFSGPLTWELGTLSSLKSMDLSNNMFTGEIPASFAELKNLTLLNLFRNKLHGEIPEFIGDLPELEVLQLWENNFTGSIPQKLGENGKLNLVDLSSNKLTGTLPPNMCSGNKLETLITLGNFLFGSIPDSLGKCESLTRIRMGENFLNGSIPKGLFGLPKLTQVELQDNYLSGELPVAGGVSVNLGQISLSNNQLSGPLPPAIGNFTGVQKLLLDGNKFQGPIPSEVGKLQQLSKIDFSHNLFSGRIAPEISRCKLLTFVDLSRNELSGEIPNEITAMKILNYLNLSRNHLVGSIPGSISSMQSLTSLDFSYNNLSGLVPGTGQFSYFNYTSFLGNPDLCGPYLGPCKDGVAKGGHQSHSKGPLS
# Key:
# [1] = target: T1, biotinylated LRR ectodomain of BARELY …
# [2] = target: T1, biotinylated LRR ectodomain of BARELY …
# [3] = target: T2, biotinylated LRR ectodomain of BARELY …; experiment: grating-coupled interferometry (GCI); Creoptix WAVE, 4PCP chip; biotinylated ectodomain captured on immobilised streptavidin; CLE40 peptide as analyte, 1:2 dilution series from 10 µM; 25 °C; 20 mM citrate pH 5.0, 250 mM NaCl, 0.01 % Tween 20; mass transport binding model; triplicates; conditions: both partners purified
binder,measurement,setting,value
RQV[Hyp]TGSDPLHH (the P at position 4 is hydroxyproline; also called synthetic CLE40 peptide; source: synthetic peptide (Peptide Specialty Labs GmbH)) [CLAVATA3/ESR-RELATED 40 (CLE40) peptide],koff,[1],2.4 s⁻¹
same,Kd,[2],697 nM
same,Kd,[3],~1000 nM

# Reference: publication doi:10.1101/2020.08.10.245050, “Crystal structures of Arabidopsis and Physcomitrella CR4 reveal the molecular architecture of CRINKLY4 receptor kinases” (bioRxiv, 2020)
